Measurements as given in US20240410826A1.

Assays:
[1] = molecular target: Human colostrum IgA (Catalog No. 16-13-090701, Athens Research and Technology) (human); test: ESM digital single-molecule counting; 20 nM IgA flowed over anti-IgA fixed on cover glass; KD=koff/kon
[2] = molecular target: Human colostrum IgA (Catalog No. 16-13-090701, Athens Research and Technology) (human); test: ESM real-time size (DH) of PEG-tethered single IgA on ITO after adding anti-IgA; mean of ~60 binding events
[3] = molecular target: Human colostrum IgA (Catalog No. 16-13-090701, Athens Research and Technology) (human); test: ESM counting of landing events of IgA monomer and complex on BSA-coated ITO; binding in free solution; fit of monomer ratio decay
[4] = molecular target: Human colostrum IgA (Catalog No. 16-13-090701, Athens Research and Technology) (human); test: single-objective ESM digital counting; 5 nM IgA flowed over anti-IgA fixed on ITO; KD=koff/kon
[5] = molecular target: Human colostrum IgA (Catalog No. 16-13-090701, Athens Research and Technology) (human); test: ESM digital single-molecule counting; 20 nM IgA flowed over anti-IgA fixed on cover glass; first-order fit
[6] = molecular target: Human colostrum IgA (Catalog No. 16-13-090701, Athens Research and Technology) (human); test: ESM counting of landing events on BSA-coated ITO; 5 nM anti-IgA mixed with 5 nM IgA in free solution; fraction of IgA still free in the first minute
[7] = molecular target: Human colostrum IgA (Catalog No. 16-13-090701, Athens Research and Technology) (human); test: ESM end-point size histogram of IgA/BSA mixture tethered on ITO, before (12.1±1.2 nm) and after (13.6±2.1 nm) adding anti-IgA; ~420 molecules
[8] = molecular target: Human colostrum IgA (Catalog No. 16-13-090701, Athens Research and Technology) (human); test: single-objective ESM digital counting; 5 nM IgA flowed over anti-IgA fixed on ITO; first-order fit
[9] = molecular target: Human colostrum IgA (Catalog No. 16-13-090701, Athens Research and Technology) (human); test: ESM counting of landing events on BSA-coated ITO; 5 nM anti-IgA mixed with 5 nM IgA in free solution; fraction of IgA still free in the third minute
[10] = molecular target: Human colostrum IgA (Catalog No. 16-13-090701, Athens Research and Technology) (human); test: ESM real-time charge (q) of PEG-tethered single IgA on ITO after adding anti-IgA; mean of ~60 binding events
[11] = molecular target: Human colostrum IgA (Catalog No. 16-13-090701, Athens Research and Technology) (human); test: ESM parallel kinetics; binding in free solution in a mixture of anti-IgA, IgA and IgM, 2.5 nM each; fit of IgA monomer ratio decay

- Kd [1]: 873 pM
- average size change on antibody binding [2]: 1.7 nm
- Kd [3]: 839 pM
- koff [3]: 0.00173 s⁻¹
- kon [3]: 2.18e+06 M⁻¹ s⁻¹
- Kd [4]: 870 pM
- koff [5]: 9.6e-05 s⁻¹
- kon [5]: 110000 M⁻¹ s⁻¹
- IgA monomer ratio (first minute) [6]: 1
- shift of the IgA size peak after antibody binding [7]: 1.5 nm
- koff [8]: 0.0002 s⁻¹
- kon [8]: 230000 M⁻¹ s⁻¹
- IgA monomer ratio (third minute) [9]: 0.5
- average charge change on antibody binding [10]: 1.8 e
- Kd [11]: 1840 pM
- koff [11]: 0.00148 s⁻¹
- kon [11]: 881000 M⁻¹ s⁻¹
Substance: Goat anti-human IgA (IgG, Catalog No. STAR141, BIO-RAD) (antibody)
